Experimental findings from the RNAGym collection of RNA variant scans (doi:10.7554/elife.90254) are described below.

B1: LINE1-full (parent)
chain: UACGUAGGUGGUUUUCCCCUGAUAGUGCUAAGGGGGCCUGGAAGUUUGGACUGGGCAGAGCUCAACACAGCGUGGCAAAGUGGCUGUGGCUAGACUGCCUCUCUGGAUUCCUCGUCACUCAGCAGGGCAUCUCUGAGAGAAAUGCC

The variants in the series derive from B1. Description: self-cleavage, relative activity (ratio to wild type); higher = more cleavage; in vitro, sequencing; the parent is a self-cleaving ribozyme.
Consider A117U A136U, for which the self-cleavage was found to be 1.67. With A117U A136G, the self-cleavage is 1.51. Then U119G A138G, with 2.33; and A121C A129G, with 1.23. Then A121C A129U, with 1.9; and G114U A141G, with 1.86; and A117U A142G, with 1.43. Then C123G A140U, with 1.27. With C116U A124C, the self-cleavage worked out at 1.6. Then C116U A124U, with 1.87. Then A121C G127A, with 1.8; and U115G A140G, with 2; and G122C A140G, with 1.36. Then A121G U132C, with 1.58; and U119G U143A, with 0.95; and C113U U115C, with 1. For the variant C113U U115A, the self-cleavage was found to be 1.05. Then U119A U130C, with 1.85. Then A121G U130C, with 1.14; and A121G U130A, with 1.25. Then C120A G139U, with 1.59; and U115C G144A, with 2.69.

As to A124G, the self-cleavage amounted to 0.98. Then A124C, with 1.56. As for A124U, the self-cleavage worked out at 1.4.

Take C120U C123A: the self-cleavage was 1.78. Then G114A U132A, with 1.64. Then A117G A140G, with 1.48; and A124C U130C, with 1.84. Then C118U, with 1.32; and C118A, with 1.11. Consider C118G, for which the self-cleavage is 1.27. Then U115A A136G, with 1.68; and G114A G127C, with 1.34; and G114A G127A, with 1.74. Then U119C A129U, with 1.82; and A117C G126A, with 1.64. Then A124G G127A, with 1.15; and A124C A138C, with 1.86; and U119C G125U, with 2.39. As to U115C U143G, the self-cleavage came to 2.45. Consider U115G A138G, for which the self-cleavage was 2.15. With U115A G137A, the self-cleavage amounted to 1.81. Then G125A A140G, with 1.32. Then C113U C123U, with 1.35; and G122A U130A, with 2.13; and G122A U130C, with 1.91. Then G114A A129G, with 1.26; and G114A A129U, with 1.33. In the case of A121G G122A, the self-cleavage was determined as 1.46. For G122A A142G, the self-cleavage came out at 0.42.

Consider C123A A141G, for which the self-cleavage worked out at 1.35. As for C113U C131G, the self-cleavage is 1.32. Then G122U C123U, with 0.8; and U119C C145U, with 1.25; and A117U U119C, with 1.73. Then U119C A121U, with 1.48; and C123G C133A, with 1.46; and A117U U132G, with 1.99. As to A117U U132C, the self-cleavage was 1.37.

Consider G114U A142C, for which the self-cleavage stood at 0.95.

Turning to G114A G125U, the self-cleavage is 1.49. Then A124U A129U, with 0.9. Then U115C U134C, with 1.61. Then A124G G125U, with 1.27. C116U A129G: the self-cleavage was 0.93. With U119A U134A, the self-cleavage stood at 1.42. Then C116A U143C, with 0.71; and C120U G127A, with 1.48; and A117U C131A, with 1.27. Then U115A U132C, with 1.88. Then U115A U132G, with 1.84. In the case of U115A U132A, the self-cleavage amounted to 1.03. Then U115G G125U, with 0.54; and U115C A117G, with 1.4; and G122U G125C, with 2.14. Turning to A117G G127A, the self-cleavage stood at 2. As to A121G G126A, the self-cleavage stood at 1.24. Regarding U115C A124C, the self-cleavage came to 2.09. Then C120U A141G, with 1.32. Then U119C C146U, with 1.68. Then A117U C128U, with 0.86. As for A117U C128A, the self-cleavage was 0.99. Then U115G A141G, with 1.25; and C116A A124G, with 1.25.

As to G114A G122U, the self-cleavage stood at 1.5. Turning to U119A U143C, the self-cleavage was 1.93.

Consider U119A U143G, for which the self-cleavage was 0.91. Then A121G A142G, with 1.48; and A121C A136G, with 1.72. Then A121U G126A, with 0.83; and U115C C131A, with 0.47. In the case of C120A A142G, the self-cleavage worked out at 0.91. Then U119C A138G, with 1.84; and A117G C145U, with 1.33. Then A124G A140G, with 0.24.

For C123U A138G, the self-cleavage was 1.91. Then A117U U143C, with 1.43; and C116U A141G, with 1.42.

As to C123U G125C, the self-cleavage worked out at 1.1. Then A121U A142U, with 1.03; and A121U A142G, with 1.4; and U119A A129U, with 1.37. In the case of C116A U119C, the self-cleavage is 1.27. Then A117G, with 1.49; and A117C, with 1.75; and A117U, with 1.46. Then A117C U130C, with 2.3; and A121U A124C, with 1.14; and A117C U134A, with 1.53. Regarding A121U C131U, the self-cleavage was found to be 0.58. On to U115C C145G, for which the self-cleavage was 1.64. Then A117C U119G, with 2.43. As to A117G A124G, the self-cleavage was determined as 0.69. Then U115A A124U, with 1.79; and A117U U134C, with 1.52; and A117U U134A, with 1.54. Then G114A U134C, with 1.13; and A117G C118U, with 1.44; and A124G C128A, with 0.46. Then A124G C128U, with 0.53.

G114U A140G: the self-cleavage stood at 0.91. Then A121U A138G, with 1.56.

Turning to A121U A138C, the self-cleavage was determined as 1.56. Then A124U U132C, with 1.43; and G125C A138G, with 1.9; and U115A C128U, with 1.23.

For C113U U143C, the self-cleavage came to 1.05. Then A121G A136G, with 1.65. Then A121G G144A, with 1.91; and C123A U134C, with 1.04. Then U115C A141U, with 1.27; and C113U A142G, with 0.91. For the variant A121C C146U, the self-cleavage was 1.77. Then A117C A121U, with 2.02. Then U115A U134A, with 0.95; and C120A U134C, with 1.65.

Turning to U115C A138G, the self-cleavage was 1.79. For U119G A141G, the self-cleavage was 1.57.

In the case of A124G A138G, the self-cleavage was 1.36. Then U119A G126A, with 1.3; and A117C A142G, with 1.8. As for A117G U132C, the self-cleavage was 1.8.

With A117G U132A, the self-cleavage was determined as 0.59. Then U115C A121U, with 2.06; and U115C A121G, with 1.42; and U115C A121C, with 1.66. Then U119A G122C, with 1.65; and U115A U143A, with 1.36. In the case of U115A U143C, the self-cleavage stood at 1.54. Then A117C A129U, with 1. Then A117G G126A, with 1.96; and U115C A140U, with 1.39. For the variant U115C A140G, the self-cleavage came to 1.58.

With C116U A138U, the self-cleavage worked out at 1.41. Then A117U A129G, with 1.69. Then C113U C128U, with 1.17. Then C116A A121U, with 1.21; and U119G U134C, with 1.76; and G114A A117U, with 1.34. On to G114A A117G, for which the self-cleavage was 1.27. Then U115A A129U, with 1.04.

Consider U115A A129G, for which the self-cleavage amounted to 1.9. As to U115A G122C, the self-cleavage amounted to 1.09. Then A124G A136U, with 1.3; and G122C A136U, with 1.96. Then U115A A141G, with 1.5.
